Data taken from article doi:10.1101/2020.09.17.302455.

Target: human plasma fibronectin (human)
Assay: ELISA

percent of BMP2 absorbed: 70 to 80%
B1: bone morphogenetic protein 2 (ligand)
chain: QAKHKQRKRLKSSCKRHPLYVDFSDVGWNDWIVAPPGYHAFYCHGECPFPLADHLNSTNHAIVQTLVNSVNSKIPKACCVPTELSAISMLYLDENEKVVLKNYQDMVVEGCGCR
